Sequences and labels used below:
B1: FVIIa variant K161A (enzyme)
chain: ANAFLEELRPGSLERECKEEQCSFEEAREIFKDAERTKLFWISYSDGDQCASSPCQNGGSCKDQLQSYICFCLPAFEGRNCETHKDDQLICVNENGGCEQYCSDHTGTKRSCRCHEGYSLLADGVSCTPTVEYPCGKIPILEKRNASKPQGRIVGGKVCPAGECPWQVLLLVNGAQLCGGTLINTIWVVSAAHCFDKIKNWRNLIAVLGEHDLSEHDGDEQSRRVAQVIIPSTYVPGTTNHDIALLRLHQPVVLTDHVVPLCLPERTFSERTLAFVRFSLVSGWGQLLDRGATALELMVLNVPRLMTQDCLQQSRKVGDSPNITEYMFCAGYSDGSKDSCKGDSGGPHATHYRGTWYLTGIVSWGQGCATVGHFGVYTRVSQYIEWLQKLMRSEPRPGVLLRAPFP
B2: FVIIa variant S60A (enzyme)
chain: ANAFLEELRPGSLERECKEEQCSFEEAREIFKDAERTKLFWISYSDGDQCASSPCQNGGACKDQLQSYICFCLPAFEGRNCETHKDDQLICVNENGGCEQYCSDHTGTKRSCRCHEGYSLLADGVSCTPTVEYPCGKIPILEKRNASKPQGRIVGGKVCPKGECPWQVLLLVNGAQLCGGTLINTIWVVSAAHCFDKIKNWRNLIAVLGEHDLSEHDGDEQSRRVAQVIIPSTYVPGTTNHDIALLRLHQPVVLTDHVVPLCLPERTFSERTLAFVRFSLVSGWGQLLDRGATALELMVLNVPRLMTQDCLQQSRKVGDSPNITEYMFCAGYSDGSKDSCKGDSGGPHATHYRGTWYLTGIVSWGQGCATVGHFGVYTRVSQYIEWLQKLMRSEPRPGVLLRAPFP
B3: FVIIa variant H373A (enzyme)
chain: ANAFLEELRPGSLERECKEEQCSFEEAREIFKDAERTKLFWISYSDGDQCASSPCQNGGSCKDQLQSYICFCLPAFEGRNCETHKDDQLICVNENGGCEQYCSDHTGTKRSCRCHEGYSLLADGVSCTPTVEYPCGKIPILEKRNASKPQGRIVGGKVCPKGECPWQVLLLVNGAQLCGGTLINTIWVVSAAHCFDKIKNWRNLIAVLGEHDLSEHDGDEQSRRVAQVIIPSTYVPGTTNHDIALLRLHQPVVLTDHVVPLCLPERTFSERTLAFVRFSLVSGWGQLLDRGATALELMVLNVPRLMTQDCLQQSRKVGDSPNITEYMFCAGYSDGSKDSCKGDSGGPHATHYRGTWYLTGIVSWGQGCATVGAFGVYTRVSQYIEWLQKLMRSEPRPGVLLRAPFP
B4: FVIIa variant S52A (enzyme)
chain: ANAFLEELRPGSLERECKEEQCSFEEAREIFKDAERTKLFWISYSDGDQCAASPCQNGGSCKDQLQSYICFCLPAFEGRNCETHKDDQLICVNENGGCEQYCSDHTGTKRSCRCHEGYSLLADGVSCTPTVEYPCGKIPILEKRNASKPQGRIVGGKVCPKGECPWQVLLLVNGAQLCGGTLINTIWVVSAAHCFDKIKNWRNLIAVLGEHDLSEHDGDEQSRRVAQVIIPSTYVPGTTNHDIALLRLHQPVVLTDHVVPLCLPERTFSERTLAFVRFSLVSGWGQLLDRGATALELMVLNVPRLMTQDCLQQSRKVGDSPNITEYMFCAGYSDGSKDSCKGDSGGPHATHYRGTWYLTGIVSWGQGCATVGHFGVYTRVSQYIEWLQKLMRSEPRPGVLLRAPFP
B5: FVIIa variant H373D (enzyme)
chain: ANAFLEELRPGSLERECKEEQCSFEEAREIFKDAERTKLFWISYSDGDQCASSPCQNGGSCKDQLQSYICFCLPAFEGRNCETHKDDQLICVNENGGCEQYCSDHTGTKRSCRCHEGYSLLADGVSCTPTVEYPCGKIPILEKRNASKPQGRIVGGKVCPKGECPWQVLLLVNGAQLCGGTLINTIWVVSAAHCFDKIKNWRNLIAVLGEHDLSEHDGDEQSRRVAQVIIPSTYVPGTTNHDIALLRLHQPVVLTDHVVPLCLPERTFSERTLAFVRFSLVSGWGQLLDRGATALELMVLNVPRLMTQDCLQQSRKVGDSPNITEYMFCAGYSDGSKDSCKGDSGGPHATHYRGTWYLTGIVSWGQGCATVGDFGVYTRVSQYIEWLQKLMRSEPRPGVLLRAPFP
B6: FVIIa variant H373E (enzyme)
chain: ANAFLEELRPGSLERECKEEQCSFEEAREIFKDAERTKLFWISYSDGDQCASSPCQNGGSCKDQLQSYICFCLPAFEGRNCETHKDDQLICVNENGGCEQYCSDHTGTKRSCRCHEGYSLLADGVSCTPTVEYPCGKIPILEKRNASKPQGRIVGGKVCPKGECPWQVLLLVNGAQLCGGTLINTIWVVSAAHCFDKIKNWRNLIAVLGEHDLSEHDGDEQSRRVAQVIIPSTYVPGTTNHDIALLRLHQPVVLTDHVVPLCLPERTFSERTLAFVRFSLVSGWGQLLDRGATALELMVLNVPRLMTQDCLQQSRKVGDSPNITEYMFCAGYSDGSKDSCKGDSGGPHATHYRGTWYLTGIVSWGQGCATVGEFGVYTRVSQYIEWLQKLMRSEPRPGVLLRAPFP
B7: FVIIa variant H373F (enzyme)
chain: ANAFLEELRPGSLERECKEEQCSFEEAREIFKDAERTKLFWISYSDGDQCASSPCQNGGSCKDQLQSYICFCLPAFEGRNCETHKDDQLICVNENGGCEQYCSDHTGTKRSCRCHEGYSLLADGVSCTPTVEYPCGKIPILEKRNASKPQGRIVGGKVCPKGECPWQVLLLVNGAQLCGGTLINTIWVVSAAHCFDKIKNWRNLIAVLGEHDLSEHDGDEQSRRVAQVIIPSTYVPGTTNHDIALLRLHQPVVLTDHVVPLCLPERTFSERTLAFVRFSLVSGWGQLLDRGATALELMVLNVPRLMTQDCLQQSRKVGDSPNITEYMFCAGYSDGSKDSCKGDSGGPHATHYRGTWYLTGIVSWGQGCATVGFFGVYTRVSQYIEWLQKLMRSEPRPGVLLRAPFP
B8: FVIIa variant K161V (enzyme)
chain: ANAFLEELRPGSLERECKEEQCSFEEAREIFKDAERTKLFWISYSDGDQCASSPCQNGGSCKDQLQSYICFCLPAFEGRNCETHKDDQLICVNENGGCEQYCSDHTGTKRSCRCHEGYSLLADGVSCTPTVEYPCGKIPILEKRNASKPQGRIVGGKVCPVGECPWQVLLLVNGAQLCGGTLINTIWVVSAAHCFDKIKNWRNLIAVLGEHDLSEHDGDEQSRRVAQVIIPSTYVPGTTNHDIALLRLHQPVVLTDHVVPLCLPERTFSERTLAFVRFSLVSGWGQLLDRGATALELMVLNVPRLMTQDCLQQSRKVGDSPNITEYMFCAGYSDGSKDSCKGDSGGPHATHYRGTWYLTGIVSWGQGCATVGHFGVYTRVSQYIEWLQKLMRSEPRPGVLLRAPFP
B9: FVIIa variant H373S (enzyme)
chain: ANAFLEELRPGSLERECKEEQCSFEEAREIFKDAERTKLFWISYSDGDQCASSPCQNGGSCKDQLQSYICFCLPAFEGRNCETHKDDQLICVNENGGCEQYCSDHTGTKRSCRCHEGYSLLADGVSCTPTVEYPCGKIPILEKRNASKPQGRIVGGKVCPKGECPWQVLLLVNGAQLCGGTLINTIWVVSAAHCFDKIKNWRNLIAVLGEHDLSEHDGDEQSRRVAQVIIPSTYVPGTTNHDIALLRLHQPVVLTDHVVPLCLPERTFSERTLAFVRFSLVSGWGQLLDRGATALELMVLNVPRLMTQDCLQQSRKVGDSPNITEYMFCAGYSDGSKDSCKGDSGGPHATHYRGTWYLTGIVSWGQGCATVGSFGVYTRVSQYIEWLQKLMRSEPRPGVLLRAPFP

For this assay, the target named is Factor X (FX) (Homo sapiens (Human)) (UniProt P00742).
Chain of Factor X (FX) (Homo sapiens (Human)) (P00742 41-488 limits assumed): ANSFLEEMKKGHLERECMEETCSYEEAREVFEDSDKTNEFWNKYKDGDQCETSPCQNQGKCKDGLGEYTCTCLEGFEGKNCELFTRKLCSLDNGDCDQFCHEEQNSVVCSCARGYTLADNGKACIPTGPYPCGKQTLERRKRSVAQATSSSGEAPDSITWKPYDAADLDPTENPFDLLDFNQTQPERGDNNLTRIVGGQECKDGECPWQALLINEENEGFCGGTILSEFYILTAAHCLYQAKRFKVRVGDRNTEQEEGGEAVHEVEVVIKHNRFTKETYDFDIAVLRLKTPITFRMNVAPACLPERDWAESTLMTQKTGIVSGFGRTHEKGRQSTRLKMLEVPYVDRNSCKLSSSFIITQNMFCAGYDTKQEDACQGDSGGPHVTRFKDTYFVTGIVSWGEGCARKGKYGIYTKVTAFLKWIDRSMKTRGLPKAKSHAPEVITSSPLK
Turning to B1, the kcat/KM, TF-Dependent Indirect Assay was 4.22e+07 M⁻¹ s⁻¹. Next, B2: 5.15e+07 M⁻¹ s⁻¹; B3: 3.11e+07 M⁻¹ s⁻¹; B4: 4.66e+07 M⁻¹ s⁻¹.

For B5, the kcat/KM, TF-Dependent Indirect Assay worked out at 1.79e+07 M⁻¹ s⁻¹. As for B6, the figure is 2.79e+07 M⁻¹ s⁻¹; as for B7, 5.11e+07 M⁻¹ s⁻¹. Regarding B8, the kcat/KM, TF-Dependent Indirect Assay came out at 5.45e+07 M⁻¹ s⁻¹. For B9, the kcat/KM, TF-Dependent Indirect Assay came to 2.75e+07 M⁻¹ s⁻¹.

These data come from US20090291890A1 (published 2009).
